# Source: publication PMC11687307, “The calcium-binding protein S100A1 binds to titin’s N2A insertion sequence in a pH-dependent manner” (The Journal of General Physiology, 2024)
# B1: S100A1 (mouse) (natural protein)
# chain: MGSELESAMETLINVFHAHSGQEGDKYKLSKKELKDLLQTELSGFLDVQKDADAVDKVMKELDENGDGEVDFKEYVVLVAALTVACNNFFWETS
# notes: S100A1, mouse; No tag is named; source: E. coli BL21(DE3), purified (Capto-Q anion exchange, phenyl Sepharose)
# B2: UN2A, unique insertion sequence of the N2A region of titin (mouse, amino acids 8539-8655) (domain or fragment)
# chain: DERKKQEKIEGDLRAMLKKTPALKKGSGEEEEIDIMELLKNVDPKEYEKYARMYGITDFRGLLQAFELLKQSQEEETHRLEIEELEKSERDEKEFEELVAFIQQRLTQTEPVTLIKD
# notes: titin, mouse, UN2A region between Ig domains I80 and I81, amino acids 8539-8655; Gene synthesised by GeneArt; No tag is named; source: E. coli BL21(DE3) pLysS, purified (Capto-Q anion exchange, SEC)
# Legend:
# Conditions in all cases: both partners purified
# [1] = molecular target: B2; experiment: SPR; UN2A immobilised on carboxyl sensor (OpenSPR), S100A1 injected at 5 to 100 µM; 25°C; 250 mM NaCl, 20 mM HEPES, 0.05% Tween; pCa 5, pH 6.0; 1:1 model
# [2] = molecular target: B2; experiment: SPR; UN2A immobilised on carboxyl sensor (OpenSPR), S100A1 injected at 5 to 100 µM; 25°C; 250 mM NaCl, 20 mM HEPES, 0.05% Tween; pCa 3, pH 7.4; 1:1 model
# [3] = molecular target: B2; experiment: SPR; UN2A immobilised on carboxyl sensor (OpenSPR), S100A1 injected at 5 to 100 µM; 25°C; 250 mM NaCl, 20 mM HEPES, 0.05% Tween; pCa 3, pH 6.0; 1:1 model
# [4] = molecular target: B2; experiment: SPR; UN2A immobilised on carboxyl sensor (OpenSPR), S100A1 injected; 25°C; pCa 3, pH 6.5; 1:1 model
# [5] = molecular target: B2; experiment: SPR; UN2A immobilised on carboxyl sensor (OpenSPR), S100A1 injected at 5 to 100 µM; 25°C; 250 mM NaCl, 20 mM HEPES, 0.05% Tween; pCa 5, pH 7.4; 1:1 model
# [6] = molecular target: B1; experiment: co-IP; purified proteins, 500 µg each, with anti-S100A1 antibody overnight at 4°C, captured on magnetic beads; 250 mM NaCl, 20 mM HEPES, 1 mM Ca^2+, pH 6; SDS-PAGE, silver staining, densitometry
Kd [1],Kd [2],Kd [3],Kd [4],Kd [5],band intensity of UN2A relative to the S100A1 band (densitometry) [6],binding ratio of UN2A to S100A1 in the complex (densitometry) [6],Binder
174 µM,21.6 µM,5 µM,9.95 µM,285 µM,,,B1
,,,,,25%,~0.25 UN2A per S100A1,B2
